Several values for one entry are separate records, joined by “and”; a condition that tells them apart may be missing. Equal values may be shown once. Read-outs that look alike come from different tables or passages of the source. Square brackets hold non-standard residues; d marks the D form. Ends that are not written are not given here. Peptide text beside a SMILES is read from it. * marks the point of attachment. Benzoyl(4-octyl) = CCCCCCCCc1ccc(C(=O)*)cc1; pT = C[C@@H](OP(=O)(O)O)[C@H](N)C(=O)O; X2 = O=C(c1ccc(OCc2ccc(F)cc2)cc1)*; Benzoyl(4-OH) = O=C(c1ccc(O)cc1)*
How the values were obtained:
[1] = molecular target: polo-box domain (PBD) of polo-like kinase 1 (PLK1) (UniProt P53350); assay: from FP IC50s, (IC50 PLK3 PBD/IC50 PLK1 PBD)x5; PLK1 PBD against PLK3 PBD
[2] = molecular target: polo-box domain (PBD) of polo-like kinase 1 (PLK1) (UniProt P53350); assay: from FP IC50s; PLK1 PBD against PLK3 PBD
[3] = molecular target: polo-box domain (PBD) of polo-like kinase 1 (PLK1) (UniProt P53350); assay: fluorescence polarization competition, displacement of tracer peptide from PLK1 PBD
[4] = molecular target: PLK1 PBD (Homo sapiens, UniProt P53350); assay: Fluorescence polarization competitive binding assay, PLK1 PBD; conditions: for Selectivity Index: (IC50 PLK3 PBD/IC50 PLK1 PBD)×5, PLK1 over PLK3
Description: (§1) According to the assay, binding of a fluorescent tracer peptide to a protein increased polarization of the emitted fluorescence. […] The ability of test molecules to bind to the PBD was quantitated by a reduction in mP values that occurred as the tracer was displaced from the PBD, and plotted to calculate as an IC50 value.
(§2) The affinities of the peptides for PLK1 and PLK3 were measured by plotting the loss of polarization against increasing concentration of competitor peptide through use of an optimized assay and selectivity determination.

[5] = molecular target: T1, PLK3 PBD (Homo sapiens, UniProt Q9H4B4); assay: Fluorescence polarization competitive binding assay, PLK3 PBD; conditions: for PLK3 PBD binding, in words: FP assay
T1 construct: A similar assay format was developed for the PLK3 PBD
T1 sequence (Q9H4B4 335-646 limits assumed): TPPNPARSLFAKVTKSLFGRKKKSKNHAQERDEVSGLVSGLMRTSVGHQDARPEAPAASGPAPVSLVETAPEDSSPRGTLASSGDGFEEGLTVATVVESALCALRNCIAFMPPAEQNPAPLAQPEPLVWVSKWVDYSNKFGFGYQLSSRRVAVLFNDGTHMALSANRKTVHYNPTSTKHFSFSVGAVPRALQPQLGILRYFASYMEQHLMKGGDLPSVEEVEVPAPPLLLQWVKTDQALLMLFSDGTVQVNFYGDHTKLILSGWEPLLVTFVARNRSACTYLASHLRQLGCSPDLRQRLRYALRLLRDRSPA
Description: The binding of fluorescein-labelled tracer peptides used for both assays was determined to see if there was a difference in affinity for their respective PBD. A titration curve for each tracer/PLK PBD complex was generated to determine Kd values for each and therefore compare the relative binding affinities.
as §2

[6] = molecular target: polo-box domain (PBD) of polo-like kinase 1 (PLK1) (UniProt P53350); assay: fluorescence polarization competition on PLK1 PBD
[7] = molecular target: polo-like kinase 1 (PLK1), wild type, in cells (UniProt P53350 2-603, limits assumed); assay: cell-based or functional assay
[8] = molecular target: polo-box domain (PBD) of polo-like kinase 3 (PLK3) (UniProt Q9H4B4); assay: fluorescence polarization competition, displacement of tracer peptide from PLK3 PBD
[9] = molecular target: T2, polo-box domain (PBD) of polo-like kinase 1 (PLK1) (UniProt P53350 367-603, limits assumed); assay: fluorescence polarization competition, displacement of tracer peptide from PLK1 PBD
T2 construct: domain: polo-box domain (PBD); the background speaks of the four known human PLKs and the residue numbers (L491) fit human PLK1; also called PLK1 PBD; PBD of PLK1
Description: as §1, with “IC₅₀” for “IC50”

[10] = PLK3 PBD FP IC50, competition with fluorescent tracer peptide
[11] = competition with fluorescent tracer peptide, read-out: PLK3 PBD FP IC50
[12] = competition with fluorescent tracer peptide, read-out: PLK1 PBD FP IC50

Sequence of PLK1 PBD (P53350 367-603 limits assumed): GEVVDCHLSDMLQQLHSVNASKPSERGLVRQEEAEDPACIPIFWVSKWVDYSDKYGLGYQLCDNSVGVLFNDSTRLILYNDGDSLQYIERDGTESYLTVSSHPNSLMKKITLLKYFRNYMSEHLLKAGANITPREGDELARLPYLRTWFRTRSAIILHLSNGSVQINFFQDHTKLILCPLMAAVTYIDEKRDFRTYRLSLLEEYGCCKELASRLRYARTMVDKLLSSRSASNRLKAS
T2 sequence (P53350 367-603 limits assumed): as above
Sequence of polo-box domain (PBD) of polo-like kinase 1 (PLK1) (UniProt P53350) (P53350 367-603 limits assumed): as above
Sequence of polo-like kinase 1 (PLK1), wild type, in cells (P53350 2-603 limits assumed): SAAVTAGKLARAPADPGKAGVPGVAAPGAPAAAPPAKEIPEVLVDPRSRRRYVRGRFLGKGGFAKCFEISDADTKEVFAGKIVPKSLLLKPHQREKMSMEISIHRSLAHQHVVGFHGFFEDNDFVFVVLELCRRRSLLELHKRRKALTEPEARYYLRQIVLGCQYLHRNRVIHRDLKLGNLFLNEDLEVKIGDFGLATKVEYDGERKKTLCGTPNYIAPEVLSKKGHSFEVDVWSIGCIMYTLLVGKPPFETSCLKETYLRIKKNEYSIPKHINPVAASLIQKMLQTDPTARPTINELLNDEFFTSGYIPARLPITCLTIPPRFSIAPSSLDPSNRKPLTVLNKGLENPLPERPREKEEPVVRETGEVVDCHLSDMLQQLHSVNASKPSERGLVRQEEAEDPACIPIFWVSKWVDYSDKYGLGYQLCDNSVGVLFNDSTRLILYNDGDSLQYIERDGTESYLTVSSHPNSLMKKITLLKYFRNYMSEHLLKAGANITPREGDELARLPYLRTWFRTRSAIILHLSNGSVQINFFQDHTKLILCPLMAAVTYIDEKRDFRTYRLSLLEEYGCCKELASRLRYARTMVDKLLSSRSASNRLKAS

Molecule: GPLATS[pT]PKNG (SEQ ID NO: 7)
- Selectivity Index [1]: 1930

Molecule: Compound No. 12, 4-hexyl S[pT]PNGL (SEQ ID NO: 11) (peptide)
- Selectivity Index [2]: > 2830
- IC50 [3]: 1 µM

Molecule: CC(C)C[C@H](NC(=O)CNC(=O)[C@H](CC(N)=O)NC(=O)[C@@H]1CCCN1C(=O)[C@@H](NC(=O)[C@H](CO)NC(=O)c1ccc(OCc2ccc(F)cc2)cc1)[C@@H](C)OP(=O)(O)O)C(=O)O [Compound 5] (X2-S[pT]PNGL-OH; C-terminus assumed)
- IC50 [4]: 5 µM
- fold reduction of PLK1 PBD binding relative to parent compound [4]: ~24 fold

Molecule: CCCCCCCCc1ccc(C(=O)N[C@@H](CO)C(=O)N[C@H](C(=O)N2CCC[C@H]2C(=O)N[C@@H](CC(N)=O)C(=O)NCC(=O)N[C@@H](CC(C)C)C(=O)O)[C@@H](C)OP(=O)(O)O)cc1 [Compound 13] ({Benzoyl(4-octyl)}-S[pT]PNGL-OH; C-terminus assumed)
- IC50 [5, 10]: 149 ± 38.2 µM

Molecule: Ac-PLHS[pT]AI (SEQ ID NO: 4)
- Selectivity Index [1]: 21100

Molecule: Ac-PLHS[pT]PNGL (SEQ ID NO: 3)
- Selectivity Index [1]: 13600
- fold increase against SEQ ID NO: 1 [6]: 3 fold

Molecule: 4-butyl benzamide FLIP, 4-butyl S[pT]PNGL (SEQ ID NO: 11) (peptide)
- Selectivity Index [2]: > 1200
- fold potency increase against Compound #9 [6]: 2 fold
- IC50 [3]: 2.5 µM

Molecule: CC(=O)N1CCC[C@H]1C(=O)N[C@@H](CC(C)C)C(=O)N[C@@H](Cc1c[nH]cn1)C(=O)N[C@@H](CO)C(=O)N[C@H](C(=O)N1CCC[C@H]1C(=O)N[C@@H](CCCCN)C(=O)N[C@@H](CC(N)=O)C(=O)NCC(=O)O)[C@@H](C)OP(=O)(O)O [SEQ ID NO: 9, Ac-PLHS[pT]PKNG] (Ac-PLHS[pT]PKNG-OH; C-terminus assumed)
- IC50 [5, 11]: 134 µM
- Selectivity Index [4]: 20,906
- IC50 [4, 12]: 0.032 µM

Molecule: CC(C)C[C@H](NC(=O)CNC(=O)[C@H](CC(N)=O)NC(=O)[C@@H]1CCCN1C(=O)[C@@H](NC(=O)[C@H](CO)NC(=O)[C@H](CS)NC(=O)[C@H](CC(C)C)NC(=O)[C@@H](N)CC(C)C)[C@@H](C)O)C(=O)O [SEQ ID NO: 2, reference compound] (H-LLCSTPNGL-OH)
- IC50 [4]: > 600 µM

Molecule: Ac-PLHS[pT]A (SEQ ID NO: 6)
- Selectivity Index [1]: > 6500
- fold reduction in binding against SEQ ID NO: 4 [6]: 7 fold
- IC50 [3]: 0.46 µM

Molecule: Compound No. 13, 4-octyl S[pT]PNGL (SEQ ID NO: 11) (peptide)
- Selectivity Index [2]: 2070
- IC50 [3]: 0.36 µM

Molecule: CC(C)C[C@H](NC(=O)CNC(=O)[C@H](CC(N)=O)NC(=O)[C@@H]1CCCN1C(=O)[C@@H](NC(=O)[C@H](CO)NC(=O)[C@@H](NC(=O)[C@H](C)NC(=O)[C@H](CC(C)C)NC(=O)[C@@H]1CCCN1C(=O)CN)[C@@H](C)O)[C@@H](C)OP(=O)(O)O)C(=O)O [SEQ ID NO: 8, GPLATS[pT]PNGL] (H-GPLATS[pT]PNGL-OH; N-terminus and C-terminus assumed)
- fold reduction of PLK3 PBD binding relative to parent compound [5]: 3 fold
- IC50 [5, 10]: 6.3 µM
- IC50 [4]: 0.011 µM
- fold reduction of PLK1 PBD binding relative to parent compound [4]: 2 fold
- Selectivity Index [4]: 2864

Molecule: Ac-PLHS[pT]PKNG (SEQ ID NO: 9)
- Selectivity Index [1]: 20900
- fold weakened affinity against SEQ ID NO: 8 [6]: 2 fold

Molecule: CC(=O)N1CCC[C@H]1C(=O)N[C@@H](CC(C)C)C(=O)N[C@@H](Cc1c[nH]cn1)C(=O)N[C@@H](CO)C(=O)N[C@H](C(=O)N1CCC[C@H]1C(=O)N[C@@H](CC(N)=O)C(=O)NCC(=O)N[C@@H](CC(C)C)C(=O)O)[C@@H](C)OP(=O)(O)O [SEQ ID NO: 3, Ac-PLHS[pT]PNGL] (Ac-PLHS[pT]PNGL-OH; C-terminus assumed)
- IC50 [5, 11]: 164 µM
- Selectivity Index [4]: 13,633
- IC50 [4, 12]: 0.06 µM

Molecule: Compound No. 14, 4-octyl S[pT]A (SEQ ID NO: 12) (peptide)
- Selectivity Index [2]: 66
- fold weaker affinity against Compound No. 15 [6]: 40 fold
- IC50 [3]: 15.2 µM

Molecule: CC[C@H](C)[C@H](NC(=O)[C@H](C)NC(=O)[C@@H](NC(=O)[C@H](CO)NC(=O)[C@H](Cc1c[nH]cn1)NC(=O)[C@H](CC(C)C)NC(C)=O)[C@@H](C)OP(=O)(O)O)C(=O)O [SEQ ID NO: 5, Ac-LHS[pT]Al] (Ac-LHS[pT]AI-OH; C-terminus assumed)
- PLK3 PBD binding, in words [5]: lost all detectable affinity
- IC50 [5, 10]: > 600 µM
- IC50 [4]: 1.57 µM
- Selectivity Index [4]: >1900

Molecule: CC[C@H](C)[C@H](NC(=O)[C@H](C)NC(=O)[C@@H](NC(=O)[C@H](CO)NC(=O)[C@H](Cc1c[nH]cn1)NC(=O)[C@H](CC(C)C)NC(=O)[C@@H]1CCCN1C(C)=O)[C@@H](C)OP(=O)(O)O)C(=O)O [SEQ ID NO: 4, Ac-PLHS[pT]Al] (Ac-PLHS[pT]AI-OH; C-terminus assumed)
- IC50 [5, 11]: 270 µM
- Selectivity Index [4]: 21,133
- IC50 [4, 12]: 0.064 µM

Molecule: CC(C)C[C@H](NC(=O)CNC(=O)[C@H](CC(N)=O)NC(=O)[C@@H]1CCCN1C(=O)[C@@H](NC(=O)[C@H](CO)NC(=O)c1ccc(O)cc1)[C@@H](C)OP(=O)(O)O)C(=O)O [Compound 1] ({Benzoyl(4-OH)}-S[pT]PNGL-OH)
- PLK1 PBD binding, in words ([4]; FP assay): completely inactive

Molecule: CC(C)C[C@H](NC(=O)[C@@H]1CCCN1C(=O)CN)C(=O)N[C@@H](C)C(=O)N[C@H](C(=O)N[C@@H](CO)C(=O)N[C@H](C(=O)N1CCC[C@H]1C(=O)N[C@@H](CCCCN)C(=O)N[C@@H](CC(N)=O)C(=O)NCC(=O)O)[C@@H](C)OP(=O)(O)O)[C@@H](C)O [SEQ ID NO: 7, GPLATS[pT]PKNG, reference compound] (H-GPLATS[pT]PKNG-OH; N-terminus and C-terminus assumed)
- IC50 [5, 10]: 2.2 µM
- IC50 [4]: 0.0057 µM
- Selectivity Index [4]: ~2000 and 1928

Molecule: CC(C)C[C@H](NC(=O)CNC(=O)[C@H](CC(N)=O)NC(=O)[C@@H]1CCCN1C(=O)[C@@H](NC(=O)[C@H](CO)NC(=O)[C@H](CS)NC(=O)[C@H](CC(C)C)NC(=O)[C@@H](N)CC(C)C)[C@@H](C)OP(=O)(O)O)C(=O)O [SEQ ID NO: 1, LLCS[pT]PNGL, reference compound] (H-LLCS[pT]PNGL-OH; N-terminus and C-terminus assumed)
- PLK3 PBD binding, in words [5]: no PLK3 PBD binding apparent at the maximum concentration tested

Molecule: CCCCCCCCc1ccc(C(=O)N[C@@H](CO)C(=O)N[C@H](C(=O)N[C@@H](C)C(=O)O)[C@@H](C)OP(=O)(O)O)cc1 [Compound 14]
- IC50 [5, 11]: 202 ± 51.3 µM
- fold reduction of PLK1 PBD binding relative to parent compound [4]: ~40 fold
- Selectivity Index [4]: 66

Molecule: Ac-LHS[pT]AI [Ac-LHS[pT]AI (SEQ ID NO: 5)]
- Selectivity Index [1]: > 1900
- fold loss of binding against SEQ ID NO: 4 [6]: 24 fold

Molecule: {Benzoyl(4-octyl)}-S[pT]AI [Compound No. 15, 4-octylbenzamide N-capped S[pT]AI (SEQ ID NO: 13)]
- MTT IC50 [µM] A549 [7]: 79.5 µM
- MTT IC50 [µM] HeLa [7]: 128 µM
- MTT IC50 [µM] PC-3 [7]: 55.7 µM
- Selectivity Index [2]: 1860
- IC50 [8]: 153 µM
- IC50 [3]: 0.41 µM

Molecule: {4‑methoxybenzoyl}-S[pT]PNGL (also: further groups not given here, see m14; also called Compound No. 2) [Compound #2, methoxy derivative FLIP (R1 = OCH3)]
- IC50 [9]: 21.9 µM

Molecule: {4‑ethoxybenzoyl}-S[pT]PNGL (also: further groups not given here, see m14; also called Compound No. 3) [Compound #3 FLIP (R1 = OCH2CH3)]
- IC50 [9]: 15.9 µM

Molecule: {4‑phenethoxybenzoyl}-S[pT]PNGL (also: further groups not given here, see m14; also called Compound No. 6) [Compound #6, 4-phenethoxy FLIP (R1 = OCH2CH2C6H5)]
- IC50 [9]: 4.5 µM

Molecule: {4‑(methylthio)benzoyl}-S[pT]PNGL (also: further groups not given here, see m14; also called Compound No. 7) [Compound #7, thiomethyl FLIP (R1 = SCH3)]
- IC50 [9]: 3 µM

Molecule: {4‑(methylamino)benzoyl}-S[pT]PNGL (also: further groups not given here, see m14; also called Compound No. 8) [Compound #8, methylamino FLIP (R1 = NCH3)]
- IC50 [9]: 11.2 µM
